According to patent publication US7531661B2, “Indane compounds as CCR5 antagonists” (SmithKline Beecham Corporation, priority 2002, dated 2009):

Biological target: T1, human CCR5 chemokine receptor (Homo sapiens, UniProt P51681)
T1 construct: host or cells: Chinese Hamster Ovary (CHO) cells; membranes prepared from the cell pellet
Assay: CC-Chemokine Receptor-5 Binding by Scintillation Proximity Assay (CCR5 SPA), displacement of 125I-MIP1α
Details: standards plate, 14-point concentration-response curve in triplicate, starting concentration 1 μM
Experimental: CC-Chemokine Receptor-5 Binding by Scintillation Proximity Assay (CCR5 SPA)
Scintillation Proximity Assay for the Human CC-Chemokine Receptor, CCR-5
This protocol describes a high-throughput screen using SPA binding to identify compounds that inhibit binding of ^125I-MIP1α to the human CCR5 chemokine receptor.
Human CCR5 receptors were expressed in Chinese Hamster Ovary (CHO) cells, registration # 12025. Cells were grown in suspension and a 50 to 80 ml CCR5 cell pellet was prepared. […]
The saturation curve binding experiment is performed by adding varying amounts of [^125I]MIP1α (0-8.5 nM to membranes and beads in concentrations chosen from the optimal protein/bead ratio. The data is analyzed using a non-linear curve-fitting program. The Kd and Bmax are derived from the curve. […]

T1 sequence (P51681 whole entry): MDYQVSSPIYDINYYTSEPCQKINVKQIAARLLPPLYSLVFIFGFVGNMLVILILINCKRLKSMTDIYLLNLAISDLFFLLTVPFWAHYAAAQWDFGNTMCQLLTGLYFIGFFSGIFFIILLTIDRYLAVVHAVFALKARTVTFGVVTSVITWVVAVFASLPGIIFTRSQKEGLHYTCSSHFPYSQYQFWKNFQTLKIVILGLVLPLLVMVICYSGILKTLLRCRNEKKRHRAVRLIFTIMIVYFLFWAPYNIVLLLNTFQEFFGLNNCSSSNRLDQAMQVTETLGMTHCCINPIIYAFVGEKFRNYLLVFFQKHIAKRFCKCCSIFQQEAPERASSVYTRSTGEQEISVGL

MIP1α: standard compound of the CCR5 SPA; natural chemokine ligand of CCR5
average historical pKi obtained with MIP1α: 7.6
